Measured values: PMC1635300

Target: Progesterone receptor isoform B (PRB) (Homo sapiens, UniProt P06401 1-933)
Experiment: EMSA

Sequence of Progesterone receptor isoform B (PRB) (P06401 whole entry, canonical isoform): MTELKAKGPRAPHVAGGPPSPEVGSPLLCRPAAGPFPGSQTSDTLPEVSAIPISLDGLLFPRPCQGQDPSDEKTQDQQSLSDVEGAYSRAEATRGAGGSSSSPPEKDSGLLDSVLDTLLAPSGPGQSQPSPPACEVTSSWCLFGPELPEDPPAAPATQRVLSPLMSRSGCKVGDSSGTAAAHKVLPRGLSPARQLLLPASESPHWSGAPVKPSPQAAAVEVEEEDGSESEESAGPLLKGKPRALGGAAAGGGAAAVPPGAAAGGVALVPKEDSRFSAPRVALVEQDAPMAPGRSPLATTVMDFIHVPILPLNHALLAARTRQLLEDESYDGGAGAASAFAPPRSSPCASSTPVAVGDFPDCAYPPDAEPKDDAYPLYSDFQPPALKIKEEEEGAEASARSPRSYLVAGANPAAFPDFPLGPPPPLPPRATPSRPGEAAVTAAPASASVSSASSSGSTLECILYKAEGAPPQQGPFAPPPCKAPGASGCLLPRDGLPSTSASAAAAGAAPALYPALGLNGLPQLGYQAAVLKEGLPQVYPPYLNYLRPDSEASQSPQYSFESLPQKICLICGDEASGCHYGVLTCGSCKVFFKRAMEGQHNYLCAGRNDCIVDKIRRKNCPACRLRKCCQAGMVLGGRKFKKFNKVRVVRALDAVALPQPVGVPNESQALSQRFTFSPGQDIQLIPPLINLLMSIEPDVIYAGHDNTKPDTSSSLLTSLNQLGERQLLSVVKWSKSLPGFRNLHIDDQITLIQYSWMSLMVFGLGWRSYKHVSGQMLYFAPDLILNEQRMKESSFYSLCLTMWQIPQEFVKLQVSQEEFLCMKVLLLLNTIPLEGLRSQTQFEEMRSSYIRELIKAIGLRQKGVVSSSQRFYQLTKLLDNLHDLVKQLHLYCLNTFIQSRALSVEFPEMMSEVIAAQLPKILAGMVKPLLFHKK

B1: PRE (dsDNA)
DNA 1: GTTACAAACTGTTCT
DNA 2: AGAACAGTTTGTAAC
**Q.** Does B1 bind?
**A.** Result: binds
